What was measured:
acetylated Smc3(R1222C) = target: T1, acetylated Smc3(R1222C) (S. cerevisiae, UniProt P47037 1-1230, R1222C, acetylated, residues not given); assay: cross-linking
T1 sequence (looked up): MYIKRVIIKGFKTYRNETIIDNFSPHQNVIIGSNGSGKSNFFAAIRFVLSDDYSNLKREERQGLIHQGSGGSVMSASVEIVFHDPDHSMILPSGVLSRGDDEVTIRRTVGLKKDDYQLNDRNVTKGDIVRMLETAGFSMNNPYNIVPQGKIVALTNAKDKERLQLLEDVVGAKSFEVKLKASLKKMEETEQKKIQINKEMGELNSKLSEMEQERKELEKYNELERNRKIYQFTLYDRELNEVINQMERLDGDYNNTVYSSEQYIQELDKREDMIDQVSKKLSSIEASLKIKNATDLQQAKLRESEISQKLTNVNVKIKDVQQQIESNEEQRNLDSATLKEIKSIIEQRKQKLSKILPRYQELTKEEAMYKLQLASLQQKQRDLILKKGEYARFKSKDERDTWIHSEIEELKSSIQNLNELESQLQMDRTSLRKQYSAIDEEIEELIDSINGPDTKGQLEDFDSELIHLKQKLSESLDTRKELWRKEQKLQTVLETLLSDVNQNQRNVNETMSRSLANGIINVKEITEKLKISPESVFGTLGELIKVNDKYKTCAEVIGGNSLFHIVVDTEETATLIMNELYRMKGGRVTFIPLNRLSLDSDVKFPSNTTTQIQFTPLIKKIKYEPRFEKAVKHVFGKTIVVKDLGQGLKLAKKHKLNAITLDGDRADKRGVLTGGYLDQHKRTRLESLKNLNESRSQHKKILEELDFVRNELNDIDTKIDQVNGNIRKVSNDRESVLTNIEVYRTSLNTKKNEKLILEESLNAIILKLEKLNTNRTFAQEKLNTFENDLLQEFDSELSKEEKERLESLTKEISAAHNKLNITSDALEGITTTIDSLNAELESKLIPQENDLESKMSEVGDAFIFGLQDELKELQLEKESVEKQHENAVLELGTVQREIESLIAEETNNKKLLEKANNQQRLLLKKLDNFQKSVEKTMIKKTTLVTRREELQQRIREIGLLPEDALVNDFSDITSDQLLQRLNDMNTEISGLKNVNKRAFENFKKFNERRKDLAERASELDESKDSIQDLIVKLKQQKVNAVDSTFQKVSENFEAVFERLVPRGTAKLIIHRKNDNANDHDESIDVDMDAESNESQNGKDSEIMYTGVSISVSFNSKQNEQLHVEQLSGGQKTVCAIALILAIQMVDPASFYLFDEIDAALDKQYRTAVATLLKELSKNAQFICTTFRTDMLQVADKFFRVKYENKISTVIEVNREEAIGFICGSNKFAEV

Smc3(R1222C) = target: T2, Smc3(R1222C) (S. cerevisiae, UniProt P47037 1-1230, R1222C); assay: cross-linking
T2 sequence (looked up): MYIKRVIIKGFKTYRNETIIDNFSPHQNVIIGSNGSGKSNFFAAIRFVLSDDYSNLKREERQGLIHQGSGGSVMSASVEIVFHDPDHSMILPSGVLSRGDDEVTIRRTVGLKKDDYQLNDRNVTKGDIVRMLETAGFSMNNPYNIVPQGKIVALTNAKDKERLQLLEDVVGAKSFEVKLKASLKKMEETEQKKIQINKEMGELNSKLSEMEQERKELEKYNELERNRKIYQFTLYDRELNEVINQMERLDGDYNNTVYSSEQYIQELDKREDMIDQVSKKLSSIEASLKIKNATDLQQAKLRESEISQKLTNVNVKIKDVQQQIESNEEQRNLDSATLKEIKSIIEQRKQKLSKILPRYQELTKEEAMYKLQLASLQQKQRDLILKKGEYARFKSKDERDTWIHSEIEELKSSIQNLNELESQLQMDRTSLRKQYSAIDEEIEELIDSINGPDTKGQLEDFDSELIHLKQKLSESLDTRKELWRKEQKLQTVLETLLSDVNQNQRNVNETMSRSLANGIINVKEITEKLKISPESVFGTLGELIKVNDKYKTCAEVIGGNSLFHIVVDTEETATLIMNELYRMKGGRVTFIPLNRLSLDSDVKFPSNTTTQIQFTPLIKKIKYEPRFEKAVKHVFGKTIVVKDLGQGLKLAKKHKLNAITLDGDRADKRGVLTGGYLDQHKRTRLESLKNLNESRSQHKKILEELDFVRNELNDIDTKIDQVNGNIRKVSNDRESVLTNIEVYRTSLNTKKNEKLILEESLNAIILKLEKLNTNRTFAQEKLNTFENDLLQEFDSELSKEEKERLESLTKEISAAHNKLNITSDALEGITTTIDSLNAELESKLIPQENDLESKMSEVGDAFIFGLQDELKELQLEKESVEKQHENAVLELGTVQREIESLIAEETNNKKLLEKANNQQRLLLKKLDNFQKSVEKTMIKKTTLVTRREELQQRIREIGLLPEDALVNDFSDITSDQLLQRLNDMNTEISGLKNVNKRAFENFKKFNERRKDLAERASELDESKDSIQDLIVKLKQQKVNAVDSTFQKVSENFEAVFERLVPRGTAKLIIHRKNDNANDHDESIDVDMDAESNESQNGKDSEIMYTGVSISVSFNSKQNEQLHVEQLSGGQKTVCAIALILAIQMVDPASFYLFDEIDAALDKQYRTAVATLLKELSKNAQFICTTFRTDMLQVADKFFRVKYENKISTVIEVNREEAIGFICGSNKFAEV

B1: Smc1(N1192C)-HA6 (natural protein, S. cerevisiae, UniProt P32908 1-1225, looked up)
chain: MGRLVGLELSNFKSYRGVTKVGFGESNFTSIIGPNGSGKSNMMDAISFVLGVRSNHLRSNILKDLIYRGVLNDENSDDYDNEGAASSNPQSAYVKAFYQKGNKLVELMRIISRNGDTSYKIDGKTVSYKDYSIFLENENILIKAKNFLVFQGDVEQIAAQSPVELSRMFEEVSGSIQYKKEYEELKEKIEKLSKSATESIKNRRRIHGELKTYKEGINKNEEYRKQLDKKNELQKFQALWQLYHLEQQKEELTDKLSALNSEISSLKGKINNEMKSLQRSKSSFVKESAVISKQKSKLDYIFKDKEKLVSDLRLIKVPQQAAGKRISHIEKRIESLQKDLQRQKTYVERFETQLKVVTRSKEAFEEEIKQSARNYDKFKLNENDLKTYNCLHEKYLTEGGSILEEKIAVLNNDKREIQEELERFNKRADISKRRITEELSITGEKLDTQLNDLRVSLNEKNALHTERLHELKKLQSDIESANNQEYDLNFKLRETLVKIDDLSANQRETMKERKLRENIAMLKRFFPGVKGLVHDLCHPKKEKYGLAVSTILGKNFDSVIVENLTVAQECIAFLKKQRAGTASFIPLDTIETELPTLSLPDSQDYILSINAIDYEPEYEKAMQYVCGDSIICNTLNIAKDLKWKKGIRGKLVTIEGALIHKAGLMTGGISGDANNRWDKEEYQSLMSLKDKLLIQIDELSNGQRSNSIRAREVENSVSLLNSDIANLRTQVTQQKRSLDENRLEIKYHNDLIEKEIQPKITELKKKLDDLENTKDNLVKEKEALQNNIFKEFTSKIGFTIKEYENHSGELMRQQSKELQQLQKQILTVENKLQFETDRLSTTQRRYEKAQKDLENAQVEMKSLEEQEYAIEMKIGSIESKLEEHKNHLDELQKKFVTKQSELNSSEDILEDMNSNLQVLKRERDGIKEDIEKFDLERVTALKNCKISNINIPISSETTIDDLPISSTDNEAITISNSIDINYKGLPKKYKENNTDSARKELEQKIHEVEEILNELQPNARALERYDEAEGRFEVINNETEQLKAEEKKILNQFLKIKKKRKELFEKTFDYVSDHLDAIYRELTKNPNSNVELAGGNASLTIEDEDEPFNAGIKYHATPPLKRFKDMEYLSGGEKTVAALALLFAINSYQPSPFFVLDEVDAALDITNVQRIAAYIRRHRNPDLQFIVISLKCTMFEKSDALVGVYRQQQENSSKIITLDLSNYAE
- cross-linking efficiency (acetylated Smc3(R1222C)): 3%
- cross-linking efficiency (Smc3(R1222C)): 41%
